Experimental data taken from patent US7906616B2, “Truncated DANCE, DANCE complex and method of using these” (Kansai Medical University, priority 2004, dated 2011).

Tests used:
human skin fibroblasts = assay: Formation of elastic fibers in cultured human skin fibroblasts; assay type: cell-based; details: protein added to serum-free medium at 4 μg/ml, cultured for 2 weeks
Description: Human fibroblasts were kindly supplied by the Department of Plastic Surgery, Kyoto University Hospital. A cover glass was placed on the bottom of a 24-well plate, on which human fibroblasts were seeded at 7.5×10^4 cells per well, and cultured in a DMEM medium supplemented with 10% FBS at 37° C. in the presence of 5% CO2. After the plate washed with PBS on Day 3, the medium was exchanged with a DMEM/F12 medium not supplemented with FBS, and purified DANCE protein, cleaved form of DANCE protein 4 μg/ml, or FBS was added. Cultivation was continued at 37° C. in the presence of 5% CO2, and the cells were fixed and immunologically stained on Day 14.
On Day 14 of cultivation, the cells were washed with 1 ml of PBS three times, after which they were fixed with 100% methanol at −20° C. for 30 minutes. After washing with PBS, the cells were subjected to blocking with a PBS containing 2% BSA at room temperature for 30 minutes, after which the cells were incubated with the polyclonal anti-elastin antibody (dilution rate 1/100) and the monoclonal anti-FLAG antibody (dilution rate 1/100) at room temperature for at least 1 hour. The cells were washed with PBS and further incubated with the anti-rabbit Alexa Fluor 488 antibody (dilution rate 1/100) and the anti-mouse Alexa Fluor 546 antibody (dilution rate 1/100) at room temperature for 1 hour. After washing with PBS, the cells were fixed with 4% para-formaldehyde at room temperature for 10 minutes and again washed with PBS, after which the sample was mounted onto a glass slide using a DAPI-containing Vectashield. Examination was performed using a confocal microscope.
Human skin fibroblasts were seeded to reach confluency; the medium was replaced with serum-free medium or a medium containing 10% fetal calf serum; the cells were cultured for 2 weeks; the formation of elastic fibers was analyzed by immunostaining with anti-elastin antibody.

human LTBP2 = target: T1, human LTBP2 (Homo sapiens, UniProt Q14767); assay: In vitro binding assay, FLAG-tagged DANCE constructs with Myc-tagged LTBP2; details: protein solutions from 293T cells mixed on ice 1 hour, anti-FLAG precipitation, anti-Myc detection
T1 construct: The portion from the 36th amino acid to the stop codon of human LTBP2; expressed in transfected cells; host or cells: 293T cells; culture supernatant mixed with cell extract
T1 sequence (Q14767 36-1821): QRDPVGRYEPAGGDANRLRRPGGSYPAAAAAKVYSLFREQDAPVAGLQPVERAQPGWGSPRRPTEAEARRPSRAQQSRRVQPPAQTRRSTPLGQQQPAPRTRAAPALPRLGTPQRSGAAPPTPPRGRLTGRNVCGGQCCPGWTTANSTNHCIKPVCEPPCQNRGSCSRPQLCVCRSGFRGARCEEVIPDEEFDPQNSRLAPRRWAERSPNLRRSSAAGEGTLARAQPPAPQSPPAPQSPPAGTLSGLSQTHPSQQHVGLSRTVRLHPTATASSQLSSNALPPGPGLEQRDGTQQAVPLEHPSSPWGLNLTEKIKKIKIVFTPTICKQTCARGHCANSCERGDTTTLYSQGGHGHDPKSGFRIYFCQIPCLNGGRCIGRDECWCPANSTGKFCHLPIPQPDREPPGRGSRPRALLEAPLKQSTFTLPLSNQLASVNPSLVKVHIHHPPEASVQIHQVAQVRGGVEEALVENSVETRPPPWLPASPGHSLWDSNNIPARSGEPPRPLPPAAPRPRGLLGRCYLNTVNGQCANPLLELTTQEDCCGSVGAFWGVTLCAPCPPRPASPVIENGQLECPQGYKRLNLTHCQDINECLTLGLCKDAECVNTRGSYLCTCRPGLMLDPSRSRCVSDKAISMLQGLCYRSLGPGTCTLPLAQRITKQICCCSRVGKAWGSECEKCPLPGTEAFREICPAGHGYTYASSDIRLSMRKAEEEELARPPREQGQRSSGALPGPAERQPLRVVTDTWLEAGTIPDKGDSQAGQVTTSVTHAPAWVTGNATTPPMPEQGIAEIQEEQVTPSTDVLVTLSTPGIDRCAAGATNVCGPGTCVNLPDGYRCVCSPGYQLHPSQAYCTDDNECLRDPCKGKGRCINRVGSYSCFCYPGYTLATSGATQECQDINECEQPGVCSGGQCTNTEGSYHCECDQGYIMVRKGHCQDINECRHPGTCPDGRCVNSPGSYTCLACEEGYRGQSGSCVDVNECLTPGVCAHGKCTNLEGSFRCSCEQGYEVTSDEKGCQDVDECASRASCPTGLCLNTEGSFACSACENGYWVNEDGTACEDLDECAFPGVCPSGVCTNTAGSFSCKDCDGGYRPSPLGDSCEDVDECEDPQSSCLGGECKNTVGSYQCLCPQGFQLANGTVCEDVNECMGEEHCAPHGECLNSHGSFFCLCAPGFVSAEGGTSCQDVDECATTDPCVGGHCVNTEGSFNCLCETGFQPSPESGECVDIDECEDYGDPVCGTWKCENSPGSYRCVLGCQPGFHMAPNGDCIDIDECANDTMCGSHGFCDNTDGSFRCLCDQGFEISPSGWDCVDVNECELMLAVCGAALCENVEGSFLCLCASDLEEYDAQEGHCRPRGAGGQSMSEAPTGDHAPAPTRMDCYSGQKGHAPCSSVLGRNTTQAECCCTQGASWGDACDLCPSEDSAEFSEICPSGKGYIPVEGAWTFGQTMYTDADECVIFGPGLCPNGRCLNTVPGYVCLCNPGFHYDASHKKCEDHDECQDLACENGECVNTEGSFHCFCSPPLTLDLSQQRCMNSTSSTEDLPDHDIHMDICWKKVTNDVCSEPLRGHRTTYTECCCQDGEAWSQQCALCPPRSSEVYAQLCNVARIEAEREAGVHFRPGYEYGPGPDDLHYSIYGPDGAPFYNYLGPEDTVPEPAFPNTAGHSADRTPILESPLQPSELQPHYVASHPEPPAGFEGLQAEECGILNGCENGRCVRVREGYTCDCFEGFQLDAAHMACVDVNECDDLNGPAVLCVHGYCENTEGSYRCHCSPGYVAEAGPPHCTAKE
Description: (§1) These were performed by methods described in “Molecular Cloning, 3rd Ed.”.
(§2) A human DANCE construct with FLAG tag (FIG. 8), a human DANCE construct with Myc tag, and a human LTBP2 construct were separately transfected to 293T cells. After cultivation in serum-free medium for 48 hours, each culture supernatant and cell extract were mixed, and this was used as the protein solution. A protein solution from the DANCE construct with FLAG tag and a protein solution from DANCE or LTBP2 with Myc tag were mixed on ice for 1 hour, and precipitated with anti-FLAG antibody, and the resulting precipitate was developed by SDS-PAGE, and detected using anti-Myc antibody or anti-FLAG antibody.

[1] = test system: vascular endothelial cells; assay: Vascular endothelial cell adhesion assay; assay type: cell-based
Source text: Full-length DANCE promotes the adhesion and extension of vascular endothelial cells via cell surface integrin. The present inventor has reported to date that full-length DANCE can serve as a ligand for the integrins αvβ3, αvβ5, and α9β1. Since the domain serving as the ligand is considered to be around the RGD motif of the amino-terminal domain of DANCE, each recombinant protein of a DANCE mutant wherein RGD was replaced with RGE for one-amino-acid substitution (RGE DANCE), and amino-terminal cleaved form of DANCE (ΔND DANCE) were purified, and these, along with full-length DANCE, were subjected to vascular endothelial cell adhesion assay (FIG. 13).

human DANCE = target: T2, human DANCE (Homo sapiens, UniProt Q9UBX5); assay: In vitro binding assay, FLAG-tagged DANCE constructs with Myc-tagged DANCE; details: protein solutions from 293T cells mixed on ice 1 hour, anti-FLAG precipitation, anti-Myc detection
T2 construct: Myc; expressed in transfected cells; host or cells: 293T cells; culture supernatant mixed with cell extract
T2 sequence (Q9UBX5 24-448): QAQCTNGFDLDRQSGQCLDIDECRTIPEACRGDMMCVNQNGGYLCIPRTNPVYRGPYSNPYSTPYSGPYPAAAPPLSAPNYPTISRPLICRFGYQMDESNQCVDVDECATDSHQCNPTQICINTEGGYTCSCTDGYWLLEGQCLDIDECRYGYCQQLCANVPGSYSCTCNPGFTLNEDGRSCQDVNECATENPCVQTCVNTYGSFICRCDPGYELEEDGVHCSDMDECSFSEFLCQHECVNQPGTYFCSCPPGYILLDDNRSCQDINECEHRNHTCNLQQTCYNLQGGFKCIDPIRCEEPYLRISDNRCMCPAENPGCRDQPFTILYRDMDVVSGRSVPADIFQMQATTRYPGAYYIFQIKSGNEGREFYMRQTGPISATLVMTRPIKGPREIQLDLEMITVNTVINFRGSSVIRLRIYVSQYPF
Description: as §1, §2

binding of DANCE to each other (human DANCE): no longer binds to each other
B1: ΔND DANCE: amino-terminal cleaved form of DANCE; 78th to 448th amino acids of SEQ ID NO:2 (SEQ ID NO:8) (protein, listed as Homo sapiens)
chain: GPYSNPYSTPYSGPYPAAAPPLSAPNYPTISRPLICRFGYQMDESNQCVDVDECATDSHQCNPTQICINTEGGYTCSCTDGYWLLEGQCLDIDECRYGYCQQLCANVPGSYSCTCNPGFTLNEDGRSCQDVNECATENPCVQTCVNTYGSFICRCDPGYELEEDGVHCSDMDECSFSEFLCQHECVNQPGTYFCSCPPGYILLDDNRSCQDINECEHRNHTCNLQQTCYNLQGGFKCIDPIRCEEPYLRISDNRCMCPAENPGCRDQPFTILYRDMDVVSGRSVPADIFQMQATTRYPGAYYIFQIKSGNEGREFYMRQTGPISATLVMTRPIKGPREIQLDLEMITVNTVINFRGSSVIRLRIYVSQYPF
formation of elastic fibers (anti-elastin immunostaining) (human skin fibroblasts): the formation of elastic fibers was very little
binding of DANCE to LTBP2 (human LTBP2): stronger binding with LTBP2 than full-length DANCE
binding to cell surface integrin ([1]; discussion statement): no longer binds to cell surface integrin
cell adhesion activity ([1]; purified recombinant protein used for coating): absolutely no cell adhesion activity
